Experimental data reported in US20240270821A1, “GIP/GLP1/GCG TRI-RECEPTOR AGONISTS AND USES THEREOF” (priority 2023, published 2024).
Changes are numbered by the printed parent chain. Where two headings read alike, the source gives them in different places. Starred links: 1 amine or outer side, 2 acyl side, 3 side chain; linkers in the order of their positions; H or OH if unused. Non-standard residues stand in square brackets, D forms with d. Groups on a side chain read outwards from the residue. *: point of attachment. C18 diacid = O=C(O)CCCCCCCCCCCCCCCCC(=O)*; γGlu = O=C(O)[C@H](CCC(=O)[*:2])N[*:1]; αMe4Pal = C[C@](N)(Cc1ccncc1)C(=O)O; 4Pal = N[C@@H](Cc1ccncc1)C(=O)O; αMeL = CC(C)C[C@](C)(N)C(=O)O; Orn = NCCC[C@H](N)C(=O)O; Dab = NCC[C@H](N)C(=O)O; AEEA = NCCOCCOCC(=O)O; Aib = CC(C)(N)C(=O)O

T1: hGIPR (Homo sapiens, UniProt P48546)
T1 sequence (P48546 22-466): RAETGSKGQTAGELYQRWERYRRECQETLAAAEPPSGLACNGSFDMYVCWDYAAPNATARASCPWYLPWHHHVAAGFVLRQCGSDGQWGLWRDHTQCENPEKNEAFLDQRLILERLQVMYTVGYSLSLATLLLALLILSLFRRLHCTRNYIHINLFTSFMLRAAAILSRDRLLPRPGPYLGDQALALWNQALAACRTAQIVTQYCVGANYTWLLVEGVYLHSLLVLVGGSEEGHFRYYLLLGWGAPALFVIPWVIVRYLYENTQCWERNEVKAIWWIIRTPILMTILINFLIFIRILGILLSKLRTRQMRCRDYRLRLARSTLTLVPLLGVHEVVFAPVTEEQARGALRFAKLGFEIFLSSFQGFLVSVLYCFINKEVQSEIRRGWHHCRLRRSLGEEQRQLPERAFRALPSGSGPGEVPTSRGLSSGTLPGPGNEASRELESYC

T2: human GIP receptor (human) (UniProt P48546)
T2 sequence (looked up): T1 sequence (P48546 22-466)

B1: Example 1120 (peptide)
chain: YXQGTFTSDXSQXLDKKAQXAFIEXLIEXGPSSGAPPPSGE
modifications: Aib, 4Pal, αMeL, Me4Pal; acylated K; C-terminal amide; synthetic construct; SITE 2: note = 2-Aminoisobutyric Acid; SITE 10: note = 3-(4-Pyridyl)-L-alanine; SITE 13: note = alpha-methyl-leucine; SITE 17: note = Lysine is chemically modified through conjugation of the epsilon-amino group of the Lysine side chain with (gamma-Glu)2-CO-(CH2)16-CO2H; SITE 20:
B2: Example 247 (peptide)
chain: B1 chain with X10F, Q12X, X25Y, I27L, P31H
modifications: non-natural residues; lipidated Lys AEEA-γGlu-C18 diacid; C-term amide; synthetic construct; SITE 2: note = 2-Aminoisobutyric Acid; SITE 12: note = L-ornithine; SITE 13: note = alpha-methyl-leucine; SITE 17: note = Lysine is chemically modified through conjugation of the epsilon-amino group of the Lysine side chain with (2-[2-(2-Amino-ethoxy)-ethoxy]-acetyl)-(gamma-Glu)
B3: Example 266 (peptide)
chain: B1 chain with X10F, Q12X, X25W, I27L, P31H
modifications: Aib, Orn, αMeL; K acylated with (AEEA)2-γGlu-C18 diacid; C-amide; synthetic construct; SITE 2: note = 2-Aminoisobutyric Acid; SITE 12: note = L-ornithine; SITE 13: note = alpha-methyl-leucine; SITE 17: note = Lysine is chemically modified through conjugation of the epsilon-amino group of the Lysine side chain with (2-[2-(2-Amino-ethoxy)-ethoxy]-acetyl)2-(gamma-Glu)
B4: Example 1110 (peptide)
chain: YXQGTFTSDXSQXLDXKAQXAFIEXLIAXGPSSGAPPPSGSEE
modifications: non-natural residues, acylated Lys, C-terminal amide; synthetic construct; SITE 2: note = 2-Aminoisobutyric Acid; SITE 10: note = 3-(4-Pyridyl)-L-alanine; SITE 13: note = alpha-methyl-leucine; SITE 16: note = L-ornithine; SITE 17: note = Lysine is chemically modified through conjugation of the epsilon-amino group of the Lysine side chain with (2-[2-(2-
B5: Example 1132 (peptide)
chain: B4 chain with S11X, A21Q, E24Q, S41G, E42G
modifications: not fully specified; Lys acylated γGlu-C18 diacid; non-natural residues; C-amide; synthetic construct; SITE 2: note = 2-Aminoisobutyric Acid; SITE 10: note = 3-(4-Pyridyl)-L-alanine; SITE 11: note = alpha-methyl-L-serine; SITE 13: note = alpha-methyl-leucine; SITE 16: note = L-ornithine; SITE 17: note = Lysine is chemically modified through conjugation of the epsilon-amino group
B6: Example 1122 (peptide)
chain: B4 chain with X16K, A28E
modifications: Aib, 4Pal, αMeL, Me4Pal; K (γGlu)2-C18 diacid; amide; synthetic construct; SITE 2: note = 2-Aminoisobutyric Acid; SITE 10: note = 3-(4-Pyridyl)-L-alanine; SITE 13: note = alpha-methyl-leucine; SITE 17: note = Lysine is chemically modified through conjugation of the epsilon-amino group of the Lysine side chain with (gamma-Glu)2-CO-(CH2)16-CO2H; SITE 20:
B7: Example 1113 (peptide)
chain: B4 chain with A21Q, A28E
modifications: non-natural residues; lipidated Lys; C-terminal amide; synthetic construct; SITE 2: note = 2-Aminoisobutyric Acid; SITE 10: note = 3-(4-Pyridyl)-L-alanine; SITE 13: note = alpha-methyl-leucine; SITE 16: note = L-ornithine; SITE 17: note = Lysine is chemically modified through conjugation of the epsilon-amino group of the Lysine side chain with D-Glutami
B8: Example 1127 (peptide)
chain: B4 chain with X16K, X25Y, A28E, S41T, E42G
modifications: Aib, 4Pal, Me4Pal, alpha-methyl-Leu, lipidated Lys, C-terminal amide; synthetic construct; SITE 2: note = 2-Aminoisobutyric Acid; SITE 10: note = 3-(4-Pyridyl)-L-alanine; SITE 13: note = alpha-methyl-leucine; SITE 17: note = Lysine is chemically modified through conjugation of the epsilon-amino group of the Lysine side chain with (gamma-Glu)2-CO-(CH2)16-CO2H; SITE 20:
B9: Example 1119 (peptide)
chain: B4 chain with X16K, A28E, S41T, E42G
modifications: Aib, 4Pal, αMeL, Me4Pal; acylated Lys; C-terminal amide; synthetic construct; SITE 2: note = 2-Aminoisobutyric Acid; SITE 10: note = 3-(4-Pyridyl)-L-alanine; SITE 13: note = alpha-methyl-leucine; SITE 17: note = Lysine is chemically modified through conjugation of the epsilon-amino group of the Lysine side chain with (gamma-Glu)2-CO-(CH2)16-CO2H; SITE 20:
B10: Example 1117 (peptide)
chain: B4 chain with X16K, A28E, S41T, E42G
modifications: non-natural residues; Lys acylated AEEA-γGlu-C18 diacid; C-terminal amide; synthetic construct; SITE 2: note = 2-Aminoisobutyric Acid; SITE 10: note = 3-(4-Pyridyl)-L-alanine; SITE 13: note = alpha-methyl-leucine; SITE 17: note = Lysine is chemically modified through conjugation of the epsilon-amino group of the Lysine side chain with (2-[2-(2-Amino-ethoxy)-ethoxy]-acetyl)

What was measured:
hGcgR = hGcgR (Homo sapiens, UniProt P47871); assay: Functional cAMP activation in the presence of 0.1% casein (no HSA); assay type: cell-based; conditions: in the presence of 0.1% casein (no HSA); geometric mean; read-out: Relative cAMP EC50, hGcgR;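 further: intracellular cAMP rise after 30 min at 37 °C, read by HTRF against a cAMP standard curve, scaled from buffer only (0%) to maximal control ligand response (100%)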
human GcgR = human GcgR (Homo sapiens, UniProt P47871); assay: Functional cAMP activity in the presence of 1% HSA; assay type: cell-based; conditions: read-out: cAMP Rel EC50, hGcgR
hGLP-1R [1] = target: T3, hGLP-1R (Homo sapiens, UniProt P43220); assay: Functional cAMP activation in the presence of 0.1% casein (no HSA); assay type: cell-based; conditions: in the presence of 0.1% casein (no HSA); geometric mean; read-out: Relative cAMP EC50, hGLP-1R;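 further: intracellular cAMP rise after 30 min at 37 °C read by HTRF, normalized between buffer only (0%) and maximal control ligand (100%), four-parameter variable-slope fit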
hGIPR [2] = target: T1, hGIPR; assay: Functional cAMP activity in the presence of 1% HSA; assay type: cell-based; conditions: HEK-293 clonal cell line, in the presence of 1% HSA; geometric mean of relative EC50; read-out: cAMP Rel EC50, hGIPR
hGIPR [3] = target: T1, hGIPR; assay: Functional cAMP activation in the presence of 0.1% casein (no HSA); assay type: cell-based; conditions: in the presence of 0.1% casein (no HSA); geometric mean; read-out: Relative cAMP EC50, hGIPR;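 further: intracellular cAMP rise after 30 min at 37 °C read by HTRF against a standard curve, scaled between buffer alone (0%) and top control ligand concentration (100%), four-parameter fit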
[4] = target: T2, human GIP receptor (human); assay: cell-based or functional assay
[5] = target: human glucagon receptor (human) (UniProt P47871); assay: cell-based or functional assay
hGLP-1R [6] = target: T3, hGLP-1R; assay: cell-based or functional assay
[7] = HEK-293 clonal cell line, in the presence of 1% HSA, geometric mean of relative EC50

T3 sequence (P43220 24-463): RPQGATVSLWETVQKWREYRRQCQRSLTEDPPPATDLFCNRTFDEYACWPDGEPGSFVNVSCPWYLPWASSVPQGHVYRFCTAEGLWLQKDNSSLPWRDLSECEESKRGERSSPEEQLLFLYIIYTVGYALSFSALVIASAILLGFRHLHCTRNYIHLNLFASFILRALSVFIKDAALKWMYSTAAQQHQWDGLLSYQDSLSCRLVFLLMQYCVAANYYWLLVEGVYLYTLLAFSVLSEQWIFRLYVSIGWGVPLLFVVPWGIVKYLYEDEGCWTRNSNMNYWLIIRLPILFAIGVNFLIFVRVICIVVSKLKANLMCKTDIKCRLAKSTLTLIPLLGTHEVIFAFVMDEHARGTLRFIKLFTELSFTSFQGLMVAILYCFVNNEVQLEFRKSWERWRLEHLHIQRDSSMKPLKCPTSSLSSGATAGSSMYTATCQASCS
Sequence of human GcgR (P47871 26-477): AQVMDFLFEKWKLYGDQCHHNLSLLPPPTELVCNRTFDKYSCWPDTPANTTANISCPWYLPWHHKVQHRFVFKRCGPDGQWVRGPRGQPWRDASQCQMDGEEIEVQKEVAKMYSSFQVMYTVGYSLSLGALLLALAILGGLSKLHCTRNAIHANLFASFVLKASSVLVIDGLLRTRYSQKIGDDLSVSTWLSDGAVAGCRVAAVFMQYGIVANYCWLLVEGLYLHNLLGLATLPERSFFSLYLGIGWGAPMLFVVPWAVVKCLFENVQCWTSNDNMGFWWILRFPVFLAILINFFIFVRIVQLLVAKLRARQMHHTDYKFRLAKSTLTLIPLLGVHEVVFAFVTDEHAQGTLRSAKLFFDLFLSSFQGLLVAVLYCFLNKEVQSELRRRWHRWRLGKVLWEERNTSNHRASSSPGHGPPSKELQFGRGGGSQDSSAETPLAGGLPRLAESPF
Sequence of human glucagon receptor (human) (P47871 26-477): as above
Sequence of hGcgR (P47871 26-477): as above

Molecule	EC50 (hGcgR) [nM]	Relative cAMP EC50 [4] [nM]	Relative cAMP EC50 [5] [nM]	Relative cAMP EC50 (hGLP-1R [6]) [nM]	further results
CC[C@H](C)[C@H](NC(=O)[C@H](CO)NC(=O)[C@H](Cc1ccc(O)cc1)NC(=O)[C@H](CC(=O)O)NC(=O)[C@H](CO)NC(=O)[C@@H](NC(=O)[C@H](Cc1ccccc1)NC(=O)[C@@H](NC(=O)CNC(=O)[C@H](CCC(=O)O)NC(=O)[C@H](C)NC(=O)[C@@H](N)Cc1ccc(O)cc1)[C@@H](C)O)[C@@H](C)CC)C(=O)N[C@@H](C)C(=O)N[C@@H](CCSC)C(=O)N[C@@H](CC(=O)O)C(=O)N[C@@H](CCCCN)C(=O)N[C@H](C(=O)N[C@@H](Cc1c[nH]cn1)C(=O)N[C@@H](CCC(N)=O)C(=O)N[C@@H](CCC(N)=O)C(=O)N[C@@H](CC(=O)O)C(=O)N[C@@H](Cc1ccccc1)C(=O)N[C@H](C(=O)N[C@@H](CC(N)=O)C(=O)N[C@@H](Cc1c[nH]c2ccccc12)C(=O)N[C@@H](CC(C)C)C(=O)N[C@@H](CC(C)C)C(=O)N[C@@H](C)C(=O)N[C@@H](CCC(N)=O)C(=O)N[C@@H](CCCCN)C(=O)NCC(=O)N[C@@H](CCCCN)C(=O)N[C@@H](CCCCN)C(=O)N[C@@H](CC(N)=O)C(=O)N[C@@H](CC(=O)O)C(=O)N[C@@H](Cc1c[nH]c2ccccc12)C(=O)N[C@@H](CCCCN)C(=O)N[C@@H](Cc1c[nH]cn1)C(=O)N[C@@H](CC(N)=O)C(=O)N[C@H](C(=O)N[C@H](C(=O)N[C@@H](CCC(N)=O)C(N)=O)[C@@H](C)O)[C@@H](C)CC)C(C)C)[C@@H](C)CC [hGIP 1-42 amide]	> 99.5	–	–	–	EC50 (human GcgR): > 9950 nM
H-Y[Aib]QGTFTSDFS[Orn][αMeL]LDKK([γGlu-γGlu-C18 diacid])AQ[Aib]AFIEYLLAGGPSSGAPPPEGSEE-NH2 [Example 1051]	10.3	–	–	–	EC50 (hGLP-1R [1]): 8.3 nM; EC50 (human GcgR; [7]): 1800 nM; EC50 (hGIPR [2]): 32.6 nM; EC50 (hGIPR [3]): 0.172 nM
H-Y[Aib]QGTFTSDFS[Orn][αMeL]LD[Orn]K([γGlu-γGlu-C18 diacid])AQ[Aib]AFIE[αMe4Pal]LLAGGPSSGAPPPEGSEE-NH2 [Example 1053]	10.4	–	–	–	EC50 (hGLP-1R [1]): 6.2 nM; EC50 (human GcgR; [7]): 3470 nM; EC50 (hGIPR [2]): 19.3 nM; EC50 (hGIPR [3]): 0.123 nM
H-Y[Aib]QGTFTSD[4Pal]SR[αMeL]LDKK([AEEA-γGlu-C18 diacid])AQ[Aib]AFIEYLIE[Aib]SPSSGAPPPSGS-NH2 [Example 807]	12.4	–	–	–	EC50 (hGLP-1R [1]): 1.72 nM; EC50 (hGIPR [3]): 0.108 nM
H-Y[Aib]QGTFTSD[4Pal]S[Dab][αMeL]LDKK([AEEA-γGlu-C18 diacid])AQ[Aib]AFIEYLIE[Aib]GPSSGAPPPSGS-NH2 [Example 803]	9.75	–	–	–	EC50 (hGLP-1R [1]): 2.02 nM; EC50 (hGIPR [3]): 0.232 nM
B1	–	0.096	5.17	4.5	–
B2	–	–	–	–	cAMP Rel EC50 (in the presence of 1% HSA) [4]: 12.9 nM; cAMP Rel EC50 (in the presence of 1% HSA) [5]: 443 nM; cAMP Rel EC50 (in the presence of 1% HSA) (hGLP-1R [6]): 291 nM
B3	–	–	–	–	cAMP Rel EC50 (in the presence of 1% HSA) [4]: 17.3 nM; cAMP Rel EC50 (in the presence of 1% HSA) [5]: 923 nM; cAMP Rel EC50 (in the presence of 1% HSA) (hGLP-1R [6]): 583 nM
B4	–	0.059	5.91	0.508	–
B5	–	0.0335	2.11	0.681	–
B6	–	0.109	10.3	5.66	–
B7	–	0.0414	14.4	1.12	–
B8	–	0.167	5.95	6.16	–
B9	–	0.0939	7.61	3.57	–
B10	–	0.124	4.93	3.51	–
